Publication doi:10.1101/2021.03.17.435802

Tests used:
[1] = biological target: ACE2(HH:NN)-Fc LALA-PG (human) (UniProt Q9BYF1); assay: SPR
ACE2(HH:NN)-Fc (human) = ACE2(HH:NN)-Fc (human) (UniProt Q9BYF1); assay: SPR

## SARS-CoV-2 S1 B.1.1.7 (from UniProt P0DTC2 14-680) (domain or fragment)
[1]
  fold enhanced affinity (against S1 WT): 3 fold
ACE2(HH:NN)-Fc (human)
  fold enhanced affinity (against S1 WT): 3 fold
